# Test results published in the Immune Epitope Database (IEDB).
# Legend:
# HLA-A*24:02 = assay: IEDB peptide-MHC binding, purified MHC/competitive/fluorescence; ≥ and ≤ were set here for values at or beyond the usual limits of such assays
# HLA-A*02:01 = assay: as above; conditions: source organism: Vaccinia virus Copenhagen
# HLA-A*03:01 [1] = assay: as above
# HLA-A*31:01 = assay: IEDB peptide-MHC binding, purified MHC/competitive/radioactivity; filed as Kd, often an IC50 or EC50 that approximates it; ≥ and ≤ were set here for values at or beyond the usual limits of such assays; conditions: source organism: Vaccinia virus WR
# HLA-A*33:01 = assay: as above; conditions: source organism: Vaccinia virus WR
# HLA-A*68:01 = assay: as above; conditions: source organism: Vaccinia virus WR
# HLA-A*11:01 [2] = assay: as above; conditions: source organism: Vaccinia virus WR
# HLA-A*01:01 = assay: IEDB peptide-MHC binding, purified MHC/competitive/fluorescence; filed as Kd, often an IC50 or EC50 that approximates it; ≥ and ≤ were set here for values at or beyond the usual limits of such assays; conditions: source organism: Influenza A virus (A/Fort Monmouth/1/1947-mouse adapted(H1N1))
# HLA-A*23:01 = assay: IEDB peptide-MHC binding, purified MHC/direct/fluorescence; filed as Kd, often an IC50 or EC50 that approximates it; ≥ and ≤ were set here for values at or beyond the usual limits of such assays
# HLA-A*11:01 [3] = assay: IEDB peptide-MHC binding, purified MHC/competitive/fluorescence; ≥ and ≤ were set here for values at or beyond the usual limits of such assays; conditions: source organism: Vaccinia virus
# HLA-B*54:01 = assay: IEDB peptide-MHC binding, purified MHC/competitive/radioactivity; filed as Kd, often an IC50 or EC50 that approximates it; ≥ and ≤ were set here for values at or beyond the usual limits of such assays
# HLA-B*51:01 = assay: as above
# HLA-B*53:01 = assay: as above
# HLA-B*35:01 = assay: as above
# HLA-B*07:02 = assay: as above
# HLA-B*15:01 = assay: IEDB peptide-MHC binding, purified MHC/competitive/fluorescence; ≥ and ≤ were set here for values at or beyond the usual limits of such assays; conditions: source organism: Vaccinia virus Copenhagen
# HLA-A*03:01 [4] = assay: IEDB peptide-MHC binding, purified MHC/competitive/fluorescence; filed as Kd, often an IC50 or EC50 that approximates it; ≥ and ≤ were set here for values at or beyond the usual limits of such assays
# HLA-C*05:01 = assay: IEDB peptide-MHC binding, purified MHC/direct/fluorescence; filed as Kd, often an IC50 or EC50 that approximates it; ≥ and ≤ were set here for values at or beyond the usual limits of such assays; conditions: source organism: Campylobacter upsaliensis RM3195
# HLA-B*18:01 = assay: as above; conditions: source organism: Yellow fever virus 17D
# HLA-B*45:06 = assay: IEDB peptide-MHC binding, purified MHC/competitive/fluorescence; filed as Kd, often an IC50 or EC50 that approximates it; ≥ and ≤ were set here for values at or beyond the usual limits of such assays
# HLA-B*83:01 = assay: as above
# HLA-B*15:42 = assay: as above
# [5] = source organism: Vaccinia virus Copenhagen
# [6] = source organism: Vaccinia virus
# [7] = source organism: Lymphocytic choriomeningitis virus (strain Armstrong)
# [8] = source organism: SARS coronavirus Tor2
# [9] = source organism: Yellow fever virus
# [10] = source organism: Mammarenavirus choriomeningitidis
# [11] = source organism: Vibrio cholerae RC385
sequence,measurement,setting,value
ALKKLIIDR,IC50,HLA-A*24:02; [5],≥ 3610 µM
same,IC50,HLA-A*02:01,≥ 166 µM
same,IC50,HLA-A*03:01 [1]; [5],≥ 83.2 µM
same,Kd,HLA-A*31:01,0.00601 µM
same,Kd,HLA-A*33:01,1.89 µM
same,Kd,HLA-A*68:01,6.04 µM
same,Kd,HLA-A*11:01 [2],≥ 56.4 µM
FTSFFYRY,Kd,HLA-A*01:01,1.28 µM
GFLNEDHWF,Kd,HLA-A*23:01; source organism: dengue virus type 2,0.0245 µM
GKVFAPKQK,IC50,HLA-A*24:02; [6],39.5 µM
same,IC50,HLA-A*11:01 [3],≥ 119 µM
same,IC50,HLA-A*03:01 [1]; [6],≥ 155 µM
GPMMCPFLF,Kd,HLA-B*54:01; [7],0.764 µM
same,Kd,HLA-B*51:01; [7],13.5 µM
same,Kd,HLA-B*53:01; [7],0.173 µM
same,Kd,HLA-B*35:01; [7],0.767 µM
same,Kd,HLA-B*07:02; [7],0.143 µM
GPQSNQRSA,Kd,HLA-B*54:01; [8],5.92 µM
same,Kd,HLA-B*51:01; [8],8.09 µM
same,Kd,HLA-B*53:01; [8],≥ 78.2 µM
same,Kd,HLA-B*35:01; [8],9.79 µM
same,Kd,HLA-B*07:02; [8],0.365 µM
HWLKVWFEW,Kd,HLA-A*23:01; source organism: Vibrio vulnificus CMCP6,0.121 µM
IMLEGETKL,IC50,HLA-A*24:02; [5],47.2 µM
same,IC50,HLA-B*15:01,42.5 µM
ITHPKYRKH,Kd,HLA-A*03:01 [4]; source organism: Vibrio vulnificus YJ016,≥ 20 µM
KSDDVEGRF,Kd,HLA-C*05:01,≤ 0.001 µM
KVHAVLTEH,Kd,HLA-A*03:01 [4]; source organism: Brucella abortus 2308,0.0944 µM
LEDGIYGIF,Kd,HLA-B*18:01,0.118 µM
same,Kd,HLA-B*45:06; [9],≥ 5 µM
same,Kd,HLA-B*83:01; [9],≥ 5 µM
same,Kd,HLA-B*15:42; [9],≥ 5 µM
LIAATAITH,Kd,HLA-A*03:01 [4]; source organism: Rickettsia felis URRWXCal2,0.266 µM
LPFHRWHTMV,Kd,HLA-B*54:01; [8],0.0284 µM
same,Kd,HLA-B*51:01; [8],1.15 µM
same,Kd,HLA-B*53:01; [8],18.7 µM
same,Kd,HLA-B*35:01; [8],7.51 µM
same,Kd,HLA-B*07:02; [8],0.462 µM
LPIFSDAAL,Kd,HLA-B*54:01; [10],1 µM
same,Kd,HLA-B*51:01; [10],≥ 64.1 µM
same,Kd,HLA-B*53:01; [10],0.0641 µM
same,Kd,HLA-B*35:01; [10],0.0133 µM
same,Kd,HLA-B*07:02; [10],0.0221 µM
MMYTVSLGK,Kd,HLA-B*45:06; [11],≥ 5 µM
same,Kd,HLA-A*03:01 [4]; [11],0.0023 µM
same,Kd,HLA-B*83:01; [11],≥ 5 µM
same,Kd,HLA-B*15:42; [11],≥ 5 µM
MPSEDGAEDL,Kd,HLA-B*54:01; [10],≥ 69.9 µM
same,Kd,HLA-B*51:01; [10],≥ 69.6 µM
same,Kd,HLA-B*53:01; [10],0.903 µM
same,Kd,HLA-B*35:01; [10],0.148 µM
same,Kd,HLA-B*07:02; [10],1.86 µM
